Source: patent US20110262438A1 (Ablynx, published 2011)

B1: 08A10 with Tag-1 (VHH)
VHH: EVQLVESGGGLVQAGGSLRLSCAASGSIFSIAAMGWYRQATGKQRELVATITDGGTTTYADSVKGRVTISRDRSANTVYLAMNNLKPDDTAVYYCYAYLRYTSRVPGDNYWGQGTQVTVSS
B2: 08A10 with Tag-2 (VHH)
VHH: B1 VHH
notes: Purified monovalent Nanobody from E. coli (pAX100)
B3: 08A5 with Tag-1 (VHH)
VHH: EVQLVESGGGLVQAGDSLRLSCAASGLTFSNYDMGWFRQAPGKEREFVGASWWSGGAPYYSDSVKGRFTISRDNAKNTVYLQANSLRPEDTAVYYCAAKRLRSFASGGSYDYWGQGTQVTVSS
B4: 08A5 with Tag-2 (VHH)
VHH: B3 VHH
notes: as for B2
B5: Mab 11G8 (R&D Systems) (antibody, V domains shown)
VH: EVKLVESGGDLVQPGGSLKLSCATSGFTFSDYYMFWVRQTPEKRLEWVAYITNGGDRSYYSDTVTGRFIISRDNAKNTLYLQMSRLKSEDTAMYYCARQGNWAAWFVYWGQGTLVTVSA
VL: DVLMTQTPLSLPVSLGDQASISCRSSHYIVHSDGNTYLEWYLQKPGQSPKLLIYKVSNRFSGVPDRFSGSGSGTDFTLKISRVEAEDLGIYYCFQGSHVPLTFGAGTKLELKR
B6: 07B11 with Tag-1 (VHH)
VHH: EVQLVESGGNLVQAGGSLGLSCAASVSISSIHIMGWYRQAPGKQRDLVATITSGGSTAYADSVKGRFTVSKDNAKNTVYLQMDSLKPEDTSVYYCAAEVRNGVFGKWNHYWGQGTQVTVSS
B7: 07B11 with Tag-2 (VHH)
VHH: B6 VHH
notes: Purified monovalent Nanobody from E. coli (pAX100); also called 707B11
B8: 07C3 with Tag-1 (VHH)
VHH: EVQLVESGGGLVQAGESLTLSCAASGRTLSAYIMGWFRQAPGKEREFVAGIWSGGYTHLADSAKGRFSISRDNAKNTVYLQMNGLKPEDTAVYYCAAGLRGRQYSNWGQGTQVTVSS
B9: 07C3 with Tag-2 (VHH)
VHH: B8 VHH
notes: Purified monovalent Nanobody from E. coli (pAX100); also called 7CXCR07C3

What was measured:
Human CXCR7 [1] = molecular target: T1, Human CXCR7 (human, UniProt P25106 1-362); test: competition FACS, 4 nM biotinylated SDF1 on HEK-hCXCR7 cells
T1 construct: also called hCXCR7; CXCR7-LP
Method: The potency of Nanobody 7CXCR07C3 and Mab 8F11 (Biolegend) to compete with SDF1 was evaluated in competition FACS with HEK-hCXCR7 cells. Cells were incubated simultaneously with 4 nM biotinylated SDF1 (R&D) and with diluted test molecules, for 2 h at 4° C. Binding of biotinylated SDF1 was detected using streptavidin-PE. Competition curves are depicted in FIG. 1.

Human CXCR7 [2] = molecular target: T1, Human CXCR7; test: displacement of 75 pM [125I]-CXCL12 from NIH3T3-hCXCR7 cells
Method: In order to assess the competition capacity, Nanobodies were evaluated in SDF1 ligand displacement assays using stable NIH3T3-hCXCR7 cells. 24 h after seeding the cells, the cells were pre-incubated for 1 h at 4° C. with a dilution series of purified monovalent Nanobodies and the corresponding C-terminal Tag-2 tagged fusion proteins to the human serum albumin binding Nanobody Alb8 (see Table B-4: SEQ ID NOs: 44 to 48 wherein the polypeptides are all C-terminal tagged with Tag-2). Also reference molecules Mab 8F11 (Biolegend), Mab 11G8 (R&D) and unlabelled SDF1 were included in the assay. Radiolabeled [¹²⁵I]-CXCL12 was diluted and added to the cells to reach a final concentration of 75 pM and cells were incubated for 3 h at 4° C. After incubation, cells were washed twice, lysed with RIPA buffer and the ¹²⁵I signal was measured. The competition of tested Nanobodies and 8F11 Mab is between 73 and 83%, relative to competition with unlabelled SDF1. This level of displacement correspond to a 100% blocking of the CXCR7 protein, as the remaining SDF-1 binding is believed not to be CXCR7 mediated, but due to the SDF-1 interaction with heparan sulfate proteoglycans. Fusion to the human serum albumin-binding Nanobody Alb8 has no significant effect on Ki values.

Human CXCR7 [3] = molecular target: T1, Human CXCR7; test: FACS, ratio of Hek293 hCXCR7 signal over control cells
Method: Clones representing distinct Nanobody B-cell lineages were tested as periplasmic extracts for their binding to cell surface exposed CXCR7. In this assay, 5-fold dilutions of periplasmic extract were incubated with Hek293 hCXCR7 and Hek293 wt cells. Binding of the Nanobodies was detected using mouse anti-myc (Serotec), followed by anti-mouse IgG-PE (Jackson Immununoresearch). Binding signals of selected Nanobody clones (mcf values and ratios of binding) are represented in Table B-8 and indicate that the Nanobodies do bind to cellular human CXCR7.

T1 sequence (P25106 whole entry): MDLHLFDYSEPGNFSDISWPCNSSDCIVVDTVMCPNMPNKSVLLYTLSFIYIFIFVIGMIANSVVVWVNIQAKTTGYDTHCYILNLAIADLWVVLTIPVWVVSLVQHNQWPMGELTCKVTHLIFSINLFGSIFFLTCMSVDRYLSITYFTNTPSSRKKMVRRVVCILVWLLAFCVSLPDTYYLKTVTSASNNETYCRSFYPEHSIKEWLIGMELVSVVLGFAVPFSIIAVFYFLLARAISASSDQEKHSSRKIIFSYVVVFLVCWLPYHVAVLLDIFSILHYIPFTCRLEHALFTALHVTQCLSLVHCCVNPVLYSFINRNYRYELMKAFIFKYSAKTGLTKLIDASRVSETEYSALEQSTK

Molecule	competition (% relative to unlabelled SDF1) (Human CXCR7 [1]) [%]	displacement (% relative to cold SDF1) (Human CXCR7 [2]) [%]	Fod Hek CXCR7/CXCR4 (Human CXCR7 [3]) [fold]
Mab 8F11 (Biolegend) (antibody)	> 95	73	
B1			85.1
B2		75	
B3			60.1
B4		77	
B5		24	
B6			110
B7		75	
B8			73.2
B9	> 95	78	
